From patent publication US20260083641 come the findings set out here.

The series relates to collagen.

In the case of “N-terminally truncated recombinant collagenase G (ColG) from Clostridium histolyticum, residues Tyr119-Lys1118, with N-terminal His-tag and TEV cleavage site”, the “fluorescence intensity, in vitro collagenase activity assay” value is on record as “where all the reaction components were included (two most right bars) significantly higher fluorescence was detected”.

On to “commercial collagenase (C.COL) (Sigma-Aldrich)”, for which the “collagenase activity relative to COLG” value was “the activity of C.COL was significantly higher, increase of about 30%-40%, than that of COLG” and the “fluorescence intensity, in vitro collagenase activity assay” value is recorded as “where all the reaction components were included (two most right bars) significantly higher fluorescence was detected”.
